Assay results taken from US20110081661A1, “Modified photoproteins with increased affinity for calcium and enhanced bioluminescence and uses thereof” (Millipore Corporation, priority 2009, published 2011).
Where two headings read alike, the source gives them in different places.

T1: EP1 Receptor (Homo sapiens, UniProt P34995)
T1 construct: host or cells: HEK293T
T1 sequence (P34995 1-402): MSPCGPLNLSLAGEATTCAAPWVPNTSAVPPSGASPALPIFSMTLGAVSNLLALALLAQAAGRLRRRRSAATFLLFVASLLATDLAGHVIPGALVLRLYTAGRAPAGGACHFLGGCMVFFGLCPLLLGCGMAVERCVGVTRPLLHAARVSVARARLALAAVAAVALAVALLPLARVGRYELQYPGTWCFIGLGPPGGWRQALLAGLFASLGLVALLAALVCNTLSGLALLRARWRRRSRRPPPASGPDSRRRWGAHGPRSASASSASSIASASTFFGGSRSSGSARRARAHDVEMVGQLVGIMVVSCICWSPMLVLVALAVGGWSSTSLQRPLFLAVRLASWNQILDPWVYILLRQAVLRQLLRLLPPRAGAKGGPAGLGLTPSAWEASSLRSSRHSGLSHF

T2: GIP Receptor (Homo sapiens, UniProt P48546)
T2 construct: host or cells: HEK293T
T2 sequence (P48546 22-466): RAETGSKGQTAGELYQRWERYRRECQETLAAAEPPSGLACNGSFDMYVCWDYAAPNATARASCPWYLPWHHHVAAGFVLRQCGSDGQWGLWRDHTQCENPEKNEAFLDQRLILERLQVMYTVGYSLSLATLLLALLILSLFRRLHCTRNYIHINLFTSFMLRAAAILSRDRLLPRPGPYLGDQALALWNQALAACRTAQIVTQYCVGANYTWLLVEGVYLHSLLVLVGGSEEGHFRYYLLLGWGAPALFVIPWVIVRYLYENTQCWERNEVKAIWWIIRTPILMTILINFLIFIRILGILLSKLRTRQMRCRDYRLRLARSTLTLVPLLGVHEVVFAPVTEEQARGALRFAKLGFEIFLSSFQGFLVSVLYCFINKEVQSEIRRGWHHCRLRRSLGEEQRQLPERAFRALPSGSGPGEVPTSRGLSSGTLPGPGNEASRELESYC


Assays:
[1] = target: T1, EP1 Receptor; format: cell-based; conditions: read-out: EP1 Receptor EC50 for PGE2
Method: The cells were subsequently thawed and either directly placed into FreeStyle media (INVITROGEN) containing 5 μM coelenterazine (Thaw/Assay), or plated in a flask overnight in growth media consisting of DMEM/F12 containing 10% fetal bovine serum, non-essential amino acids, and penicillin/streptomycin prior to loading with coelenterazine (Thaw/ON Recovery). After loading with coelenterazine for 3-4 h, the cells were centrifuged and resuspended in HBSS with calcium and magnesium.
Thaw/Assay indicates dose response of cells that were thawed and directly loaded with coelenterazine prior to assay, and Thaw/ON Recovery indicates dose response of cells allowed to recover in growth media overnight prior to loading and assay. […] The EC50 values for activation of each receptor by its ligand for each cell treatment method were determined as described above for FIG. 5 for cytosolic clytin K168D photoprotein transfected into HEK293T cells with cotransfected GIP Receptor and G protein.

[2] = target: T1, EP1 Receptor; assay: Fluorescent calcium assay, stable cell line, EP1 Receptor; format: cell-based; conditions: read-out: EP1 Receptor EC50 for PGE2; Fluorescent Ca^2+ assay, cell line stably expressing the receptor
[3] = target: T3, H1 histamine receptor (Homo sapiens, UniProt P35367); assay: H1 histamine receptor-mediated bioluminescence in U-2OS cells (FIG. 3); format: cell-based; conditions: total bioluminescence at 20 seconds
T3 construct: expressed in transfected cells; host or cells: U-2OS
T3 sequence (P35367 whole entry): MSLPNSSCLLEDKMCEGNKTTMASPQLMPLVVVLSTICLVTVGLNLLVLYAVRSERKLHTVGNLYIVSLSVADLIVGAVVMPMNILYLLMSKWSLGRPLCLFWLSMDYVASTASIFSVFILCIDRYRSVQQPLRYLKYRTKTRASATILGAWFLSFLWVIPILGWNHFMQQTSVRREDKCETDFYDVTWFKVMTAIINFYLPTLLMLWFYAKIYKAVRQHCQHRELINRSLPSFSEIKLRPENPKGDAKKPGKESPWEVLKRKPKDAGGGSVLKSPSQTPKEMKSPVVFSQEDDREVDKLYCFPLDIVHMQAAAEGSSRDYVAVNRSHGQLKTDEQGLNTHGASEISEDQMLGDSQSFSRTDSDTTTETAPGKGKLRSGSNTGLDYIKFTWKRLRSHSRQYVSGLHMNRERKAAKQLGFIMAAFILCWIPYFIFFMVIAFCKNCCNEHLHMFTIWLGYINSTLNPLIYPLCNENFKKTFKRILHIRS
Description: Following the generation of modified forms of Clytin, the various variants were compared with wt-Aequorin for their affinity for intracellular calcium in transient transfection assays using co-transfection with the H1 histamine receptor (Genbank Accession No. NM_000861, obtained by PCR using H1-specific primers from a human brain cDNA library, forward primer 5′-[…] ATTCCTC-3′ (SEQ ID NO:60), reverse primer 5′-[…] AATTCTC-3′ (SEQ ID NO:61).
In another experiment, the ability of the various photoproteins to detect calcium flux in live cells was assessed by adding varying concentrations of histamine to cells in order to activate the H1 histamine receptor followed by measurement of bioluminescence of the various photoproteins. […] On the second day, the cells were trypsinized, counted, and plated in a white tissue-culture treated 96-well plate (COSTAR) at a density of about 50,000 cells/well in growth media consisting of DMEM containing 10% fetal bovine serum, non-essential amino acids, HEPES and penicillin/streptomycin. […] 50 μl/well of histamine at varying concentrations in HBSS/HEPES containing both Ca^2+ and Mg^2+ was added to the cells and total bioluminescence was measured at 20 seconds using a Victor2 luminometer.

[4] = target: T4, TRPA1 cation channel (Homo sapiens, UniProt O75762); assay: Ion channel-mediated bioluminescence in HEK293 cells stably expressing TRPA1, induced by AITC; format: cell-based; conditions: HEK293 cells stably expressing TRPA1, AITC 10^−6 to 10^−3.5 M
T4 construct: host or cells: HEK293
T4 sequence (O75762 whole entry): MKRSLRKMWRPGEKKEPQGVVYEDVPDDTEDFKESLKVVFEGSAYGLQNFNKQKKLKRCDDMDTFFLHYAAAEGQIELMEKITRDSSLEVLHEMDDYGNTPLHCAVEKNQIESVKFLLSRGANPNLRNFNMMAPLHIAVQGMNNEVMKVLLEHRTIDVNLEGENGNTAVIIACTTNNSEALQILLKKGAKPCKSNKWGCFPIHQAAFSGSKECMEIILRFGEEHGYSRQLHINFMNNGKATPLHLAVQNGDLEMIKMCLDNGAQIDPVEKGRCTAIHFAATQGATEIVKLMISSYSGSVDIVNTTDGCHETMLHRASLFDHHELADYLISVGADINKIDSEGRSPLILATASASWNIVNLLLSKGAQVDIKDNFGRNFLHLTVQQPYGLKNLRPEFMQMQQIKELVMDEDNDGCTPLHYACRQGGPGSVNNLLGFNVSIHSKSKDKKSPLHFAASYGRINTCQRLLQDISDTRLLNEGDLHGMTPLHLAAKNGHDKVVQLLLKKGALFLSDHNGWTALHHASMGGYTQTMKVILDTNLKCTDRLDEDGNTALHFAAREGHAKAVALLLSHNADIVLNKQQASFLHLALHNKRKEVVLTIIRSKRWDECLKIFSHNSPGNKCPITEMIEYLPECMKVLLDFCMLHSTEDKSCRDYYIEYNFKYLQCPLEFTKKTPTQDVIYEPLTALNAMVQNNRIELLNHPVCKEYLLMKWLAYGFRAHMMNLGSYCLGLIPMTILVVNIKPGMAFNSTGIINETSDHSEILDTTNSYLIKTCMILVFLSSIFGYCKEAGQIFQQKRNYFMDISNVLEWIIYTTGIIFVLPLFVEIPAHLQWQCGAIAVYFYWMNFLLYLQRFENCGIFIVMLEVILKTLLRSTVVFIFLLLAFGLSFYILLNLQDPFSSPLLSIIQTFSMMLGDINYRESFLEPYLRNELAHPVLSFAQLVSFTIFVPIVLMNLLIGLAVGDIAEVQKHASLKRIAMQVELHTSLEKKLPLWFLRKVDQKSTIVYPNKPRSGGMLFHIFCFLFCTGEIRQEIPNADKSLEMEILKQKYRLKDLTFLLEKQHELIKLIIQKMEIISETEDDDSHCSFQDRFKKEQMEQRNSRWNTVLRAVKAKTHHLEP

[5] = target: T2, GIP Receptor; assay: GIP receptor-mediated bioluminescence in HEK293T cells with chimeric promiscuous G protein (FIG. 5, Table II); format: cell-based; conditions: for % GPCR/total: signal induced by maximal GIP (1 μM) as percentage of signal induced by Triton X-100 with 1 mM Ca^2+; for Signal: background with GIP: signal induced by maximal GIP (1 μM) divided by signal induced by buffer alone
[6] = target: T3, H1 histamine receptor; assay: GPCR-mediated versus total bioluminescence in U-2OS cells (FIG. 4); format: cell-based; conditions: 10 μM histamine vs Triton X-100 with 1 mM calcium
Method: In another experiment, the ability of the various photoproteins to detect calcium flux in live cells was assessed by adding varying concentrations of histamine to cells in order to activate the H1 histamine receptor followed by measurement of bioluminescence of the various photoproteins. U-2OS cells were transfected with a cDNA encoding H1 histamine receptor along with a cDNA encoding either a wild-type photoprotein or a modified photoprotein according to the invention, as described above in Example 2, except that Lipofectamine-2000 (INVITROGEN) was used as the transfection reagent. On the second day, the cells were trypsinized, counted, and plated in a white tissue-culture treated 96-well plate (COSTAR) at a density of about 50,000 cells/well in growth media consisting of DMEM containing 10% fetal bovine serum, non-essential amino acids, HEPES and penicillin/streptomycin. On the third day, the medium was removed and cells were washed once with 200 μl/well of HBSS/HEPES (containing Ca^2+). Cells were subsequently incubated with 5 μM coelenterazine in HBSS/HEPES (containing Ca^2+) in a volume of 200 μl/well, for 3-4 hours at room temperature in the dark. After incubation, the coelenterazine solution was removed and cells were washed and replaced with HBSS/HEPES buffer containing both Ca^2+ and Mg^2+. 50 μl/well of histamine at varying concentrations in HBSS/HEPES containing both Ca^2+ and Mg^2+ was added to the cells and total bioluminescence was measured at 20 seconds using a Victor2 luminometer.
In an exemplary experiment, U-2OS cells were transfected, plated and loaded with coelenterazine as described in Example 3. Luminescence induced by buffer alone or by 10 μM histamine was measured also as described in Example 3. Additionally, luminescence induced by addition of Triton X-100 in the presence of 1 mM calcium was also determined in order to assess the total amount of active photoprotein detectable using saturating calcium concentrations in cells.

[7] = Calcium EC50 of mitochondrially targeted photoproteins in HEK293T cells without cotransfected GPCR or G protein (Table II); format: cell-based; conditions: no cotransfected GPCR or G protein
[8] = background statement; cited from earlier work
[9] = HEK293T cells, GIP Receptor + promiscuous G protein
[10] = HEK293T cells, GIP Receptor + promiscuous G protein, luminescence vs GIP concentration
[11] = listed as cytosolic Clytin K168D

| Molecule | EC50 ([1]; Luminescent Assay, Thaw/Assay) [nM] | EC50 ([1]; Luminescent assay, Thaw/ON Recovery) [nM] | EC50 [2] [nM] | luminescence induced by histamine [3] | EC50 (AITC dose response) [4] | signal (AITC-induced bioluminescence) [4] | signal intensities, GIP dose response (FIG. 5) ([5]; HEK293T cells, GIP 10^−11 to 10^−6 M) | Max signal with GIP (RLU × 10^−5) [5, 9] [RLU × 10^−5] | Max signal with GIP (RLU × 10^−5) ([5]; HEK293T cells, GIP Receptor + promiscuous G protein, listed as cytosolic Clytin K168D) | EC50 [5, 10] [nM] | EC50 for GIP (nM) [5, 10] | % GPCR/total [5] [%] | % GPCR/total [5, 11] | Signal: background with GIP [5] | Signal: background with GIP [5, 11] | GPCR-mediated signal as % of the total signal [6] | EC50 [7] [nM] | affinity for calcium [8] |
| --- | --- | --- | --- | --- | --- | --- | --- | --- | --- | --- | --- | --- | --- | --- | --- | --- | --- | --- |
| CCCCC[C@H](O)/C=C/[C@H]1[C@H](O)CC(=O)[C@@H]1C/C=C\CCCC(=O)O [PGE2, prostaglandin E2] | 6 | 10 | 3 | – | – | – | – | – | – | – | – | – | – | – | – | – | – | – |
| Cyto-clytin K168D: K168D modified Clytin amino acid sequence, SEQ ID NO:9; cytosolic (protein) MADTASKYAVKLRPNFDNPKWVNRHKFMFNFLDINGDGKITLDEIVSKASDDICAKLGATPEQTKRHQDAVEAFFKKIGMDYGKEVEFPAFVDGWKELANYDLKLWSQNKKSLIRDWGEAVFDIFDKDGSGSISLDEWKAYGRISGICSSDEDAEKTFKHCDLDNSGDLDVDEMTRQHLGFWYTLDPNADGLYGNFVP | – | – | – | much higher luminescence than the other forms of Clytin and Aequorin | lower EC50 than cytosolic wild-type Clytin | higher signal than cytosolic and mitochondrial Aequorin | significantly higher signal intensities than any of the wild-type photoproteins | 8.76 | highest maximal signal | 4.01 | lowest EC50 | 55.6 | highest % GPCR/total | 74.3 | highest signal to background ratio | ~100% | 160 | – |
| Cyto-aequorin: Wild-type Aequorin (wt-Aequorin) amino acid sequence, SEQ ID NO:2; cytosolic (protein, listed as Aequorea victoria) MTSKQYSVKLTSDFDNPRWIGRHKHMFNFLDVNHNGKISLDEMVYKASDIVINNLGATPEQAKRHKDAVEAFFGGAGMKYGVETDWPAYIEGWKKLATDELEKYAKNEPTLIRIWGDALFDIVDKDQNGAITLDEWKAYTKAAGIIQSSEDCEETFRVCDIDESGQLDVDEMTRQHLGFWYTMDPACEKLYGGAVP | – | – | – | – | – | – | – | 1.21 | – | 6.67 | – | 13.0 | – | 29.4 | – | about 30% | 235 | around 7 μM |
